Results as given in US20250009896A1, “SUPR[…] BASED VIRAL […] CAPTURE FOR PREVENTION AND THERAPY OF VIRAL INFECTION” (The Johns Hopkins University, priority 2023, published 2025).

Legend:
[1] = biological target: T1, Recombinant human angiotensin-converting enzyme 2 (ACE2) protein, carrier-free (R&D Systems) (human), Q9BYF1
[2] = biological target: T1, Recombinant human …; test: cell-based or functional assay
[3] = biological target: T1, Recombinant human …; remark: listed apart in the source
[4] = biological target: T1, Recombinant human …; test: calculated reference value for the zeta potential of the mixture

T1 sequence (Q9BYF1 18-740 limits assumed): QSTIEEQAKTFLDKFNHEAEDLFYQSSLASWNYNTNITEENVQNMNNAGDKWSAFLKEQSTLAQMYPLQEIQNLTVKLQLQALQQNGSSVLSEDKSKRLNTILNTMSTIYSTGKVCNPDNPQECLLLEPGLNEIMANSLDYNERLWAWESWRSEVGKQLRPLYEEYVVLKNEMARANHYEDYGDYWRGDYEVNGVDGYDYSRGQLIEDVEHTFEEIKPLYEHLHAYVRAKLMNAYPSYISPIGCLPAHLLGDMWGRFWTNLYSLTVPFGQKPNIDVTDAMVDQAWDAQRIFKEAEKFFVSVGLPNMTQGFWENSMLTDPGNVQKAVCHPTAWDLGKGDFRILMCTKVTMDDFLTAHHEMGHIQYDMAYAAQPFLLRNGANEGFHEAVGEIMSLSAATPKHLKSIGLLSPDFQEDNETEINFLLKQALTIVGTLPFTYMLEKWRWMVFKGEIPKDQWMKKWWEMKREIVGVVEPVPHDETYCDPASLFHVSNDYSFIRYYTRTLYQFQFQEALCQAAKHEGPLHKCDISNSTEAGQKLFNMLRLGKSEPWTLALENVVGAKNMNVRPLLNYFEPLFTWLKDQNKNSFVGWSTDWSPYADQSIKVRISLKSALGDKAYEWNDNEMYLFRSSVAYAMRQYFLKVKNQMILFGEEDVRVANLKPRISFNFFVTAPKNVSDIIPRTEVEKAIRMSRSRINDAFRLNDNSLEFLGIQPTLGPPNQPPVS

Row | Binder | zeta potential of the 20:1 filaments after addition of ACE2 (bar '20:1+ACE2'); the sheet prints -31.9 for '20:1' without ACE2 (** between the two) and -29.4 for 'Filler' alone [1] | ACE2 enzymatic inhibition at 0 min incubation [2] | inhibition of added ACE2 (initial velocity relative to free ACE2) [2] | zeta potential of the mixture, measured [3] | intensity-averaged zeta potential calculated assuming no interaction [4]
1 | ACE2-docking supramolecular filaments (20:1 molar ratio of Filler to Ligand), without ACE2 (modifications not checked) peptide 1: VVVGEE peptide 2: VVVGKKGGGDYSHCSPLRYYPWWKCTYPDPEGGG | -36.7 mV | 83% | 93% |  | 
2 | VVVGKKGGGDYSHCSPLRYYPWWKCTYPDPEGGG (modifications not checked) [ACE2-binding Ligand peptide amphiphile (C12-VVVGKK-GG-OEG4-DX600)] |  |  |  | -25.1 mV | -17.6 mV
